# Several values for one entry are separate records, joined by “and”; a condition that tells them apart may be missing. Equal values may be shown once. Read-outs that look alike come from different tables or passages of the source. Bridge positions count the residues as written; N and C are the ends. Square brackets hold non-standard residues; d marks the D form. Primed or numbered codes have the meaning given here. Ends that are not written are not given here. MCA = alpha-methylhydrocinnamic acid (2-methyl-3-phenylpropanoic acid); PEG 20 kDa″ = 20 kDa polyethylene glycol (PEG); Abu(4-SO3H) = N[C@@H](CCS(=O)(=O)O)C(=O)O; PEG 20 kDa = 20 kDa polyethylene glycol; PhLac = O=C(O)[C@@H](O)Cc1ccccc1
# How the values were obtained:
# human glucagon receptor [1] = target: T1, human glucagon receptor (human, UniProt P47871 26-477); assay: SPA competition vs 125I-glucagon, receptor membranes
# T1 construct: whole, on cells; cAMP assay: transfected HEK293 cells
# T1 sequence (P47871 26-477): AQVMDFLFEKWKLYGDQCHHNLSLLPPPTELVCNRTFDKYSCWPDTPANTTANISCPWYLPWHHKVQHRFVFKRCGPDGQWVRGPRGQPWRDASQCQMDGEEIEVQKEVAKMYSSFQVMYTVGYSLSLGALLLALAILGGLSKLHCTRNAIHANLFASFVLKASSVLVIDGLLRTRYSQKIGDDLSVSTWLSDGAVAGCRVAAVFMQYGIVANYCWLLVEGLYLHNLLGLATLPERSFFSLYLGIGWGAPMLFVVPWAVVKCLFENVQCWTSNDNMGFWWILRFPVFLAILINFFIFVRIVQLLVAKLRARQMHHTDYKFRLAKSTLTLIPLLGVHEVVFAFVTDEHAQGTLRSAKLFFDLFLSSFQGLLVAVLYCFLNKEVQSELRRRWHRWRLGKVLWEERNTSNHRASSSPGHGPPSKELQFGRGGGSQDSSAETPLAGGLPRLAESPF
# human glucagon receptor [2] = target: T1, human glucagon receptor; assay: cell-based or functional assay
# human GLP-1 receptor [3] = target: T2, human GLP-1 receptor (human, UniProt P43220 24-463); assay: cell-based or functional assay
# human glucagon receptor [4] = target: T1, human glucagon receptor; assay: cell-based or functional assay; remark: listed apart in the source
# human GLP-1 receptor [5] = target: T2, human GLP-1 receptor; assay: cell-based or functional assay; remark: listed apart in the source
# human glucagon receptor [6] = target: T1, human glucagon receptor; assay: cell-based or functional assay; remark: listed apart in the source
Binder,IC50 (human glucagon receptor [1]) [nM],"IC50 (cAMP, inhibit 0.2 mM Glucagon) (human glucagon receptor [2])",further results
"C(PEG 20 kDa)FTSEYSKYLDSRRAQDFVQWLMNT-NH2 [[C^5(20kDaPEG), E^9]Glucagon(aa5-29)-NH2]",331,976 nM,
"[PhLac]TSDYSKYLDERRAQDFVQWLMDTGPSSGAPPPSC(PEG 20 kDa)-NH2 (lactam 7-11) [[PLA6, K12E16(Lactam), D28,CEX-C40(20 kDa)]G(6-40)]",,,GLP-1 agonism EC50 (human GLP-1 receptor [3]): 657 nM
"[PhLac]TC(PEG 1.2 kDa)EYSKYLDSRRAQDFVQWLMNT-NH2 [[PLA^6, C^8(1.2kDaPEG), E^9]Glucagon(aa6-29)-NH2]",220,,
"[PhLac]TC(PEG 20 kDa)EYSKYLDSRRAQDFVQWLMNT-NH2 [[PLA^6, C^8(20kDaPEG), E^9]Glucagon(aa6-29)-NH2]",303,236 nM and 92 nM,
"[MCA]TSEYSKYLDSRRAQDFVC(PEG 20 kDa)WLMNT-NH2 [[MCA^6, E^9, C^24(20kDaPEG)]Glucagon(aa6-29)-NH2]",208,,
"[PhLac]TSEYSKYLDSRRAQDFVC(PEG 1.2 kDa)WLMNT-NH2 [[PLA^6, E^9,C^24(1.2 kDaPEG)]Glucagon(aa6-29)-NH2]",4.7,18 nM,
"[PhLac]TSEYC(PEG 20 kDa)KYLDSRRAQDFVQWLMNT-NH2 [[PLA^6, E^9, C^11(20kDaPEG)]Glucagon(aa6-29)-NH2]",776,664 nM,
"[PhLac]TSEYSKYLDSRRAQDFVC(PEG 20 kDa)WLMNT-NH2 [[PLA^6, E^9, C^24(20kDaPEG)]Glucagon(aa6-29)-NH2]",90,126 nM,
"[PhLac]TSDYSKYLDEQAAKDFIAWLMDT-NH2 (lactam 7-11; N-terminus assumed; SMILES CC[C@H](C)[C@H](NC(=O)[C@H](Cc1ccccc1)NC(=O)[C@H](CC(=O)O)NC(=O)[C@H](CCCCN)NC(=O)[C@H](C)NC(=O)[C@H](C)NC(=O)[C@H](CCC(N)=O)NC(=O)[C@@H]1CCC(=O)NCCCC[C@H](NC(=O)[C@H](CO)NC(=O)[C@H](Cc2ccc(O)cc2)NC(=O)[C@H](CC(=O)O)NC(=O)[C@H](CO)NC(=O)[C@@H](NC(=O)[C@@H](O)Cc2ccccc2)[C@@H](C)O)C(=O)N[C@@H](Cc2ccc(O)cc2)C(=O)N[C@@H](CC(C)C)C(=O)N[C@@H](CC(=O)O)C(=O)N1)C(=O)N[C@@H](C)C(=O)N[C@@H](Cc1c[nH]c2ccccc12)C(=O)N[C@@H](CC(C)C)C(=O)N[C@@H](CCSC)C(=O)N[C@@H](CC(=O)O)C(=O)N[C@H](C(N)=O)[C@@H](C)O) [[PLA6, K12E16(lactam), GLP(23-32)]G(6-29)]",,,Glucagon antagonism IC50 (inhibit 0.2-0.8 nM glucagon) (human glucagon receptor [4]): 169 nM
"C(PEG 5 kDa)FTSEYSKYLDSRRAQDFVQWLMNT-NH2 [[C^5(5kDaPEG), E^9]Glucagon(aa5-29)-NH2]",634,1610 nM,
"[PhLac]TC(PEG 5 kDa)EYSKYLDSRRAQDFVQWLMNT-NH2 [[PLA^6, C^8(5kDaPEG), E^9]Glucagon(aa6-29)-NH2]",948,216 nM,
"[PhLac]TSDYSKYLDEQAAKEFIAWLMNT-NH2 (N-terminus assumed; SMILES CC[C@H](C)[C@H](NC(=O)[C@H](Cc1ccccc1)NC(=O)[C@H](CCC(=O)O)NC(=O)[C@H](CCCCN)NC(=O)[C@H](C)NC(=O)[C@H](C)NC(=O)[C@H](CCC(N)=O)NC(=O)[C@H](CCC(=O)O)NC(=O)[C@H](CC(=O)O)NC(=O)[C@H](CC(C)C)NC(=O)[C@H](Cc1ccc(O)cc1)NC(=O)[C@H](CCCCN)NC(=O)[C@H](CO)NC(=O)[C@H](Cc1ccc(O)cc1)NC(=O)[C@H](CC(=O)O)NC(=O)[C@H](CO)NC(=O)[C@@H](NC(=O)[C@@H](O)Cc1ccccc1)[C@@H](C)O)C(=O)N[C@@H](C)C(=O)N[C@@H](Cc1c[nH]c2ccccc12)C(=O)N[C@@H](CC(C)C)C(=O)N[C@@H](CCSC)C(=O)N[C@@H](CC(N)=O)C(=O)N[C@H](C(N)=O)[C@@H](C)O) [[PLA6, E16, GLP(23-32)]G(6-29)]",,,GLP-1 agonism EC50 (human GLP-1 receptor [5]): 85.6 nM; Glucagon antagonism IC50 (inhibit 0.2-0.8 nM glucagon) (human glucagon receptor [4]): 64.5 nM
"C(PEG 1.2 kDa)FTSEYSKYLDSRRAQDFVQWLMNT-NH2 [[C^5(1.2kDaPEG), E^9]Glucagon(aa5-29)-NH2]",1080,2280 nM,
"[PhLac]TSDYSKYLDEQAAKEFIAWLMDT-NH2 (lactam 11-15; N-terminus assumed; SMILES CC[C@H](C)[C@H](NC(=O)[C@H](Cc1ccccc1)NC(=O)[C@H](CCC(=O)O)NC(=O)[C@@H]1CCCCNC(=O)CC[C@H](NC(=O)[C@H](CC(=O)O)NC(=O)[C@H](CC(C)C)NC(=O)[C@H](Cc2ccc(O)cc2)NC(=O)[C@H](CCCCN)NC(=O)[C@H](CO)NC(=O)[C@H](Cc2ccc(O)cc2)NC(=O)[C@H](CC(=O)O)NC(=O)[C@H](CO)NC(=O)[C@@H](NC(=O)[C@@H](O)Cc2ccccc2)[C@@H](C)O)C(=O)N[C@@H](CCC(N)=O)C(=O)N[C@@H](C)C(=O)N[C@@H](C)C(=O)N1)C(=O)N[C@@H](C)C(=O)N[C@@H](Cc1c[nH]c2ccccc12)C(=O)N[C@@H](CC(C)C)C(=O)N[C@@H](CCSC)C(=O)N[C@@H](CC(=O)O)C(=O)N[C@H](C(N)=O)[C@@H](C)O) [[PLA6, E16K20(lactam), GLP(23-32)]G(6-29)]",,,GLP-1 agonism EC50 (human GLP-1 receptor [5]): 51.2 nM
"C(PEG 3.4 kDa)FTSEYSKYLDSRRAQDFVQWLMNT-NH2 (also: dimer: Cys5 of two chains joined by 3.4 kDa PEG) [3.4kDaPEG-dimer[C^5, E^9]Glucagon(aa5-29)-NH2]",435,1340 nM,
"SQLTFTS[Abu(4-SO3H)]YSKYLDSRRAQDFVQFLLNT-NH2 (N-terminus assumed; SMILES CC(C)C[C@H](NC(=O)[C@H](Cc1ccc(O)cc1)NC(=O)[C@H](CCCCN)NC(=O)[C@H](CO)NC(=O)[C@H](Cc1ccc(O)cc1)NC(=O)[C@H](CCS(=O)(=O)O)NC(=O)[C@H](CO)NC(=O)[C@@H](NC(=O)[C@H](Cc1ccccc1)NC(=O)[C@@H](NC(=O)[C@H](CC(C)C)NC(=O)[C@H](CCC(N)=O)NC(=O)[C@@H](N)CO)[C@@H](C)O)[C@@H](C)O)C(=O)N[C@@H](CC(=O)O)C(=O)N[C@@H](CO)C(=O)N[C@@H](CCCNC(=N)N)C(=O)N[C@@H](CCCNC(=N)N)C(=O)N[C@@H](C)C(=O)N[C@@H](CCC(N)=O)C(=O)N[C@@H](CC(=O)O)C(=O)N[C@@H](Cc1ccccc1)C(=O)N[C@H](C(=O)N[C@@H](CCC(N)=O)C(=O)N[C@@H](Cc1ccccc1)C(=O)N[C@@H](CC(C)C)C(=O)N[C@@H](CC(C)C)C(=O)N[C@@H](CC(N)=O)C(=O)N[C@H](C(N)=O)[C@@H](C)O)C(C)C) [[desHis^1, Leu^4, hCys^9(SO3-), Phe^25, Leu^27] Glucagon-NH2]",,,cAMP Induction EC50 (human glucagon receptor [6]): 1610 nM; cAMP Inhibition IC50 (human glucagon receptor [6]): 4460 nM
"[PhLac]TSEYSKYLDERRAKDFVC(PEG 20 kDa″)WLMNT-NH2 (lactam 11-15) [[PLA6, E9,E16K20(Lactam), C24(20 kDa)]G(6-29)]",,,GLP-1 agonism EC50 (human GLP-1 receptor [3]): 825 nM

# — US20110098217A1 (INDIANA UNIVERSITY RESEARCH AND TECHNOLOGY, published 2011)
